The values that follow come from patent publication US20030125296, “Insulin-responsive DNA binding protein-1 and methods to regulate insulin-responsive genes” (published 2003).

For data set [1], the target named is T1, IRDBP-1 C-terminal 1503 bp coding region (Trx-IRDBP-1) (Rattus norvegicus, UniProt Q5ZQU0 SEQ:548-1047). Put plainly: competition; did not compete IGFBP-3 IRE band. As to conditions: tags: His6-thioredoxin fusion (pET-32a). The source says: (§1) This band was competed by the IGFBP-3 IRE, but not by the unrelated NFκB oligonucleotide (FIG. 26, left panel). In addition, the gel-shift band was supershifted with the anti-IRDBP-1 cAb antibody, but not with preimmune serum (FIG. 26, right panel).

The target of data set [2] is T1, IRDBP-1 C-terminal 1503 bp coding …. Put plainly: EMSA; self-competed; supershifted by anti-IRDBP-1 cAb; printed probe sequence from Example 7. The conditions noted are these: tags: His6-thioredoxin fusion (pET-32a).
Description: as §1

T1 sequence (Q5ZQU0 904-1403): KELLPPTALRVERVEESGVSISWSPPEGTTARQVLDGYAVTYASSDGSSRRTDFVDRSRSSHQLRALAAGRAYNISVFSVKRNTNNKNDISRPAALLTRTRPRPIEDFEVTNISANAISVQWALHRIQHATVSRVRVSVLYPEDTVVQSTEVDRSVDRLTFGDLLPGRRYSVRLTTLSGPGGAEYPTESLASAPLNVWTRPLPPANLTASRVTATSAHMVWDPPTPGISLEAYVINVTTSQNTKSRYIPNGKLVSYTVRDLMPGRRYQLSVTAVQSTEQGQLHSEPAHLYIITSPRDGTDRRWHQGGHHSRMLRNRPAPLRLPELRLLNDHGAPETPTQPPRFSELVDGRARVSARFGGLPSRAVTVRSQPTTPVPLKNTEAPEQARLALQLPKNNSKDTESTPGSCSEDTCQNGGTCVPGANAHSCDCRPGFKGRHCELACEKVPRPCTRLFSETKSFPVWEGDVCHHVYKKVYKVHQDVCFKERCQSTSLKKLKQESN

B1: NFkB consensus (dsDNA)
DNA 1: GGGACTTTCCGGGACTTTCC
DNA 2: GGAAAGTCCCGGAAAGTCCC
B1: in data set [1], the binding result is recorded as “no binding”.

B2: IGFBP-3 IRE oligo (Example 7) (dsDNA)
DNA 1: AATTCAAGGGTATCCAGGAAAGTCTCCTTCAAG
DNA 2: CTTGAAGGAGACTTTCCTGGATACCCTTGAATT
For the molecule B2, the binding result in data set [2] is recorded as “binds”.
